Experimental data taken from US20240034772A1 (published 2024).

B1: MPE33_S36A (antibody, V domains shown)
VH: QVQLQESGPGLVKPSQTLSLTCTVSGDSISNGAYCWNWVRQPAGKGLEWIGRIYPIGNTNYNPSLKSRVTISLDTSKNQFSLKLASVTAADTAVYYCAREARIFEGYYYYYYGLDVWGQGTTVTVSS
VL: EIVLTQSPATLSLSPGERATLSCRASQTISSYLAWYQQKPGQAPRLLISDVSKRATGIPARFSGSGSGTDFTLTISSLEPEDFAVYYCHQRSNWDTFGQGTKLEIK
B2: MPE33_C38S (antibody, V domains shown)
VH: QVQLQESGPGLVKPSQTLSLTCTVSGDSISNGSYSWNWVRQPAGKGLEWIGRIYPIGNTNYNPSLKSRVTISLDTSKNQFSLKLASVTAADTAVYYCAREARIFEGYYYYYYGLDVWGQGTTVTVSS
VL: EIVLTQSPATLSLSPGERATLSCRASQTISSYLAWYQQKPGQAPRLLISDVSKRATGIPARFSGSGSGTDFTLTISSLEPEDFAVYYCHQRSNWDTFGQGTKLEIK
B3: MPE33_N34S_C38Y (antibody, V domains shown)
VH: QVQLQESGPGLVKPSQTLSLTCTVSGDSISSGSYYWNWVRQPAGKGLEWIGRIYPIGNTNYNPSLKSRVTISLDTSKNQFSLKLASVTAADTAVYYCAREARIFEGYYYYYYGLDVWGQGTTVTVSS
VL: EIVLTQSPATLSLSPGERATLSCRASQTISSYLAWYQQKPGQAPRLLISDVSKRATGIPARFSGSGSGTDFTLTISSLEPEDFAVYYCHQRSNWDTFGQGTKLEIK
B4: MPE33_N34Q (antibody, V domains shown)
VH: QVQLQESGPGLVKPSQTLSLTCTVSGDSISQGSYCWNWVRQPAGKGLEWIGRIYPIGNTNYNPSLKSRVTISLDTSKNQFSLKLASVTAADTAVYYCAREARIFEGYYYYYYGLDVWGQGTTVTVSS
VL: EIVLTQSPATLSLSPGERATLSCRASQTISSYLAWYQQKPGQAPRLLISDVSKRATGIPARFSGSGSGTDFTLTISSLEPEDFAVYYCHQRSNWDTFGQGTKLEIK
B5: MPE33_C38A (antibody, V domains shown)
VH: QVQLQESGPGLVKPSQTLSLTCTVSGDSISNGSYAWNWVRQPAGKGLEWIGRIYPIGNTNYNPSLKSRVTISLDTSKNQFSLKLASVTAADTAVYYCAREARIFEGYYYYYYGLDVWGQGTTVTVSS
VL: EIVLTQSPATLSLSPGERATLSCRASQTISSYLAWYQQKPGQAPRLLISDVSKRATGIPARFSGSGSGTDFTLTISSLEPEDFAVYYCHQRSNWDTFGQGTKLEIK
B6: MPE33_N34S (antibody, V domains shown)
VH: QVQLQESGPGLVKPSQTLSLTCTVSGDSISSGSYCWNWVRQPAGKGLEWIGRIYPIGNTNYNPSLKSRVTISLDTSKNQFSLKLASVTAADTAVYYCAREARIFEGYYYYYYGLDVWGQGTTVTVSS
VL: EIVLTQSPATLSLSPGERATLSCRASQTISSYLAWYQQKPGQAPRLLISDVSKRATGIPARFSGSGSGTDFTLTISSLEPEDFAVYYCHQRSNWDTFGQGTKLEIK
B7: MPE33_C38Y (antibody, V domains shown)
VH: QVQLQESGPGLVKPSQTLSLTCTVSGDSISNGSYYWNWVRQPAGKGLEWIGRIYPIGNTNYNPSLKSRVTISLDTSKNQFSLKLASVTAADTAVYYCAREARIFEGYYYYYYGLDVWGQGTTVTVSS
VL: EIVLTQSPATLSLSPGERATLSCRASQTISSYLAWYQQKPGQAPRLLISDVSKRATGIPARFSGSGSGTDFTLTISSLEPEDFAVYYCHQRSNWDTFGQGTKLEIK
B8: MPE8 (antibody, V domains shown)
VH: EVQLVESGGGLVKPGGSLRLSCAASGFTFSSYSMNWVRQAPGKGLEWVSSISASSSYSDYADSAKGRFTISRDNAKTSLFLQMNSLRAEDTAIYFCARARATGYSSITPYFDIWGQGTLVTVSS
VL: QSVVTQPPSVSGAPGQRVTISCTGSSSNIGAGYDVHWYQQLPGTAPKLLIYDNNNRPSGVPDRFSASKSGTSASLAITGLQAEDEADYYCQSYDRSLSGVFGTGTKVTVL

What follows are binders tested against MPV pre-fusion F protein (conformationally stabilized, CAN97-83 MPV strain) (human metapneumovirus (hMPV), strain …, UniProt Q6WB98 19-489) (assay: ELISA).
Chain of MPV pre-fusion F protein (conformationally stabilized, CAN97-83 MPV strain) (Q6WB98 19-489): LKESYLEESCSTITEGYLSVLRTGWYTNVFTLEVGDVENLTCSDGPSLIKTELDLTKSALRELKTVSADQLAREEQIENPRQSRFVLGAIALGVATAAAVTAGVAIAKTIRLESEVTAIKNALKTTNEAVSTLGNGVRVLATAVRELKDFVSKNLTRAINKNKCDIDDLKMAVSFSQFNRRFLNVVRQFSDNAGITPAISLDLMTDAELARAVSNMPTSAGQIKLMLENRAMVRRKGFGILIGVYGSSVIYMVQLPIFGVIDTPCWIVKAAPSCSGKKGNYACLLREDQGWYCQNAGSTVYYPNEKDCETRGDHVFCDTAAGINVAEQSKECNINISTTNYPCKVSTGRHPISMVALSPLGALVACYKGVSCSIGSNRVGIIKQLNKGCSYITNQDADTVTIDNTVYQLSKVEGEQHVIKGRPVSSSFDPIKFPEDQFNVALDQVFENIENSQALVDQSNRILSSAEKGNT

Question: Which EC50 does the source give for B1 here?
Answer: Its EC50 is 2.31 ng/mL.

Question: Which EC50 does the source give for B2 here?
Answer: Its EC50 is 2.39 ng/mL.

Question: How did the EC50 turn out when B3 was run?
Answer: The EC50 was 2.87 ng/mL.

Question: How did the EC50 turn out when B4 was run?
Answer: Its EC50 is 1.96 ng/mL.

Question: For B5, which EC50 is on record?
Answer: Its EC50 is 1.51 ng/mL.

Question: With B6 as the binder, how does the EC50 read?
Answer: Its EC50 is 1.56 ng/mL.

Question: With B7 as the binder, how does the EC50 read?
Answer: The EC50 was 2.5 ng/mL.

The binders below were run against PRE (human metapneumovirus (hMPV), strain …, UniProt Q6WB98 19-489) (assay: ELISA; pre-fusion F).
Chain of PRE (Q6WB98 19-489): as above

Question: With B8 as the binder, how does the EC50 read?
Answer: Its EC50 is 34.8 ng/mL.

Each binder was assayed against POST (human metapneumovirus (hMPV), strain …, UniProt Q6WB98 19-489) (assay: ELISA; post-fusion F).
Chain of POST (Q6WB98 19-489): as above

Question: Which EC50 does the source give for B8 here?
Answer: The EC50 was 769000 ng/mL.
